This series in a line: protein stability index of a GFP-peptide fusion (GPS, HEK-293T) (PSI 1-6); higher = more stable. The following applies: c terminus: a fixed tail appended.

± gives the standard deviation.
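Note: 24-mer peptide tiles fused after GFP, lentivirally expressed, FACS-sorted into six equal bins by GFP/DsRed ratio, decoded by Illumina sequencing, PSI is the read-weighted mean bin number.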

As for NKTWREQYLRLPDAPEQRLRVMTT [ELOA2], the protein stability index runs as follows: (treatment: DMSO) 3.26 ± 0.31; (treatment: MLN4924 1 uM, 8 h) 3.19 ± 0.48.

With NLFVPLNTNPKEVQEMRNKIREQN [ADD1], the protein stability index reads like this: (treatment: DMSO) 4.29 ± 0.18; (treatment: MLN4924 1 uM, 8 h) 4.18 ± 0.24.

For the sequence NLSKTQNMERFGEDNLEDDDVEMK [CDC14A], the protein stability index (treatment: DMSO) is 5.4 ± 0.061 and the protein stability index (treatment: MLN4924 1 uM, 8 h) worked out at 5.4 ± 0.12.

As to NLSRDVTEALILQLFSQIGPCKNC [TIA1], the protein stability index reads like this: (treatment: DMSO) 2.48 ± 0.42; (treatment: MLN4924 1 uM, 8 h) 2.91 ± 0.6.

Take NMDPAGLDDEDDTSIGMPSLMYRS [RETREG3]: the protein stability index (treatment: DMSO) stood at 4.87 ± 0.15 and the protein stability index (treatment: MLN4924 1 uM, 8 h) came out at 4.91 ± 0.1.

NNLLSAPPPDVTQLTPPSHDLTDN [ANKRD17] returned a protein stability index (treatment: DMSO) of 5.12 ± 0.28 and a protein stability index (treatment: MLN4924 1 uM, 8 h) of 5.18 ± 0.18.

On to NPYYDPLQWKSSHFERRDNMNDNF [CHGB], for which the protein stability index runs as follows: (treatment: DMSO) 3.27 ± 0.1; (treatment: MLN4924 1 uM, 8 h) 3.14 ± 0.23.

On to NQHGIILKYIGMAKREINKLLKQK [ARL6IP1], for which the protein stability index stood at 1.93 ± 0.39 (treatment: DMSO) and 2.16 ± 0.32 (treatment: MLN4924 1 uM, 8 h).

On to NRIKGCHDHLTLSVSRPEGRSWPS [PDLIM4], for which the protein stability index was 2.87 ± 0.25 (treatment: DMSO) and 3.02 ± 0.18 (treatment: MLN4924 1 uM, 8 h).

On to NRNQRIVQLIQDTRIHILPSMNPD [CPN1], for which the protein stability index came to 2.95 ± 0.12 (treatment: DMSO) and 3 ± 0.25 (treatment: MLN4924 1 uM, 8 h).

As to NSAMPFKILYDDGKMVEEVDGRAT [PTPRD], the protein stability index turned out to be 4.69 ± 0.32 (treatment: DMSO) and 4.62 ± 0.13 (treatment: MLN4924 1 uM, 8 h).

Turning to NSEEEEDDDDEEEEVSEVESFILD [ANKRD17], the protein stability index turned out to be 5.06 ± 0.33 (treatment: DMSO) and 4.94 ± 0.23 (treatment: MLN4924 1 uM, 8 h).

Consider NSNTPVDDFHTNDVCSFPNALVTK [FEM1B], for which the protein stability index turned out to be 4.68 ± 0.26 (treatment: DMSO) and 4.5 ± 0.18 (treatment: MLN4924 1 uM, 8 h).

Sequence NSTGSGRGKKLMVLTEPILIETYT [TPRG1] yielded a protein stability index (treatment: DMSO) of 2.57 ± 0.18 and a protein stability index (treatment: MLN4924 1 uM, 8 h) of 2.75 ± 0.24.

As to NTELQDVQRIMVANIEEVLQRGEA [SEC22B], the protein stability index reads like this: (treatment: DMSO) 4.7 ± 0.36; (treatment: MLN4924 1 uM, 8 h) 4.71 ± 0.25.

Regarding NTKNEISELTRLIQRIRSEIENVK [KRT71], the protein stability index runs as follows: (treatment: DMSO) 2.83 ± 0.14; (treatment: MLN4924 1 uM, 8 h) 2.78 ± 0.24.

Consider NTKRAIHTLAVMNDRLYAIGGNHL [KLHL14], for which the protein stability index was found to be 2.2 ± 0.19 (treatment: DMSO) and 2.3 ± 0.14 (treatment: MLN4924 1 uM, 8 h).

Consider NTSIRVADFGSATFDHEHHTTIVA [CLK3], for which the protein stability index runs as follows: (treatment: DMSO) 3.52 ± 0.45; (treatment: MLN4924 1 uM, 8 h) 3.27 ± 0.28.

For NTVVSTYVTTNVSLIPPRSEQLVN [TMEM106C], the protein stability index worked out at 3.04 ± 0.3 (treatment: DMSO) and 3.19 ± 0.24 (treatment: MLN4924 1 uM, 8 h).

As to NVAASNAKLALFYDWLFFSPDKDS [INTS3], the protein stability index amounted to 2.39 ± 0.46 (treatment: DMSO) and 2.55 ± 0.55 (treatment: MLN4924 1 uM, 8 h).

Consider NVCDDYDVTCNEFFFDRNPGAFGT [KCNG1], for which the protein stability index by setting is: (treatment: DMSO) 3.44 ± 0.25; (treatment: MLN4924 1 uM, 8 h) 3.65 ± 0.12.

Turning to NYPYDKSFEHRVRGVRRTASTPTP [CPN1], the protein stability index turned out to be 4.05 ± 0.4 (treatment: DMSO) and 4.14 ± 0.23 (treatment: MLN4924 1 uM, 8 h).

Sequence PAGERRIYRHRIPSTICFGQGAAR [ZNF511] had a protein stability index (treatment: DMSO) of 2.89 ± 0.5 and a protein stability index (treatment: MLN4924 1 uM, 8 h) of 3.22 ± 0.45.

PCCSSSPEEPLNGESYESCCPTSR [FEM1A] had a protein stability index (treatment: DMSO) of 4.28 ± 0.22 and a protein stability index (treatment: MLN4924 1 uM, 8 h) of 4.64 ± 0.31.

For the sequence PCKQCKKKYVKGDVSLCRWHPKPY [FBXO34], the protein stability index by setting is: (treatment: DMSO) 3.09 ± 0.34; (treatment: MLN4924 1 uM, 8 h) 3.07 ± 0.51.

The sequence PCSEFMEPSSDPSLLGEPCAGPGF [SPAG8] showed a protein stability index (treatment: DMSO) of 4.15 ± 0.25 and a protein stability index (treatment: MLN4924 1 uM, 8 h) of 4.44 ± 0.28.

As to PDANTWTALPPMNEARHNFGIVEI [GAN], the protein stability index reads like this: (treatment: DMSO) 2.42 ± 0.34; (treatment: MLN4924 1 uM, 8 h) 2.51 ± 0.43.

The sequence PDFILKVVIDKHPVRFFVHKRPHV [CTDNEP1] yielded a protein stability index (treatment: DMSO) of 2.46 ± 0.56 and a protein stability index (treatment: MLN4924 1 uM, 8 h) of 2.44 ± 0.76.

As for PDGLRSGDGVPPRSLQDGTREGFG [LCOR], the protein stability index is, setting by setting: (treatment: DMSO) 4.95 ± 0.11; (treatment: MLN4924 1 uM, 8 h) 5.15 ± 0.16.

In the case of PDPSHSPSDKVGRADAHLGSSSVA [TOR1AIP2], the protein stability index reads like this: (treatment: DMSO) 4.98 ± 0.37; (treatment: MLN4924 1 uM, 8 h) 4.68 ± 0.95.

For PEDEVIVNQYVIRPGPSASAASSA [RNF208], the protein stability index (treatment: DMSO) is 4.61 ± 0.12 and the protein stability index (treatment: MLN4924 1 uM, 8 h) came to 4.62 ± 0.16.

For PEERLEKQNEKLNNQEEETEFKEL [CCDC89], the protein stability index turned out to be 5.67 ± 0.11 (treatment: DMSO) and 5.48 ± 0.29 (treatment: MLN4924 1 uM, 8 h).

As for PEIAQNFSAPDPPRPRPVSLSLRL [SMTNL2], the protein stability index is, setting by setting: (treatment: DMSO) 2.91 ± 0.27; (treatment: MLN4924 1 uM, 8 h) 3.04 ± 0.22.

Consider PFNQSTFNNVVEQNFKNRESYPED [DLC1], for which the protein stability index runs as follows: (treatment: DMSO) 4.62 ± 0.14; (treatment: MLN4924 1 uM, 8 h) 4.66 ± 0.16.

As to PGRPRTDGENVFTGQSKIYSYMSP [KMT5A], the protein stability index amounted to 3.4 ± 0.39 (treatment: DMSO) and 3.58 ± 0.23 (treatment: MLN4924 1 uM, 8 h).

Regarding PHLMPSNCGLEEKIANLGSCNDSK [S100A14], the protein stability index by setting is: (treatment: DMSO) 2.61 ± 0.9; (treatment: MLN4924 1 uM, 8 h) 1.66 ± 0.27.

The values above are taken from the supplement of paper PMC10567573.
